Assay results reported in patent CN111995674A (INST MILITARY MEDICINE ACADEMY MILITARY SCIENCES PLA, dated 2020).

Target: SARS-CoV-2 Spike蛋白 (去除末端19个氨基酸), 新冠假病毒表面 (SARS-CoV-2, UniProt P0DTC2 14-1254)
Test: cell-based or functional assay

B1: 人鼠嵌合全抗体mhC3 (antibody, V domains shown)
VH: EVQLVESGGDLVKPGGSLKLSCAASGFTFNTYAMNWVRQTPGKGLEWVARIRSKSNNYATYYADSVKDRFTISRDDSQSMLYLQMNNLKTEDTAMYYCVTPYYGNYADWFTYWGQGTSVTVSS
VL: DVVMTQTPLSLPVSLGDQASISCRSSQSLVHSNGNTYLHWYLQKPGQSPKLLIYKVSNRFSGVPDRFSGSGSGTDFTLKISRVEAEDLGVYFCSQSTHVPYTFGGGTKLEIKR
notes: also called mhC3抗体; C3 (图5、图6)
- 中和新冠假病毒 EC50 (luciferase, Huh7细胞): 0.223 µg/mL
